Assay results reported in patent publication US20130273089A1 (TOLERA THERAPEUTICS, published 2013).

Columns and labels:
[1] = biological target: human αβ T cell receptor (αβ TCR) on T cells (human); test: cell-based or functional assay
[2] = biological target: T1, CD14 on cells expressing CD14 (monocyte lineage/NK cells) (UniProt P08571 20-345, limits assumed); test: flow cytometry on PBMC from 6 donors
T1 construct: whole, on cells
T1 sequence (looked up): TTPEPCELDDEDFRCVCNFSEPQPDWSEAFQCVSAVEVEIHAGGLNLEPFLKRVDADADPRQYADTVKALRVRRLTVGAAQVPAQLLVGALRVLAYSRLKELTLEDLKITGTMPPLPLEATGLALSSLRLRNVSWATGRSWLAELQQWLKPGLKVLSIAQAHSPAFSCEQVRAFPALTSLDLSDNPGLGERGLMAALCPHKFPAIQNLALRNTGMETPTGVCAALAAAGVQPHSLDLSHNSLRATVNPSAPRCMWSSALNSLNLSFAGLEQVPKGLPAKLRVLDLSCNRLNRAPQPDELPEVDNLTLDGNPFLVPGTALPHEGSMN

B1: TOL101 murine anti-αβ TCR monoclonal IgM antibody produced by the hybridoma TOL101 MCB (ATCC PTA-13293) (antibody)
heavy: QVQLQQSGAELARPGASVKMSCKASGYTFTSYTMHWVKQRPGQGLEWIGYINPSSGYTNYNQKFKDKATLTADKSSSTAYMQLSSLTSEDSAVYYCARWRDAYYAMDYWGQGTSVTVSSESQSFPNVFPLVSCESPLSDKNLVAMGCLARDFLPSTISFTWNYQNNTEVIQGIRTFPTLRTGGKYLATSQVLLSPKSILEGSDEYLVCKIHYGGKNRDLHVPIPAVAEMNPNVNVFVPPRDGFSGPAPRKSKLICEATNFTPKPITVSWLKDGKLVESGFTTDPVTIENKGSTPQTYKVISTLTISEIDWLNLNVYTCRVDHRGLTFLKNVSSTCAASPSTDILTFTIPPSFADIFLSKSANLTCLVSNLATYETLNISWASQSGEPLETKIKIMESHPNGTFSAKGVASVCVEDWNNRKEFVCTVTHRDLPSPQKKFISKPNEVHKHPPAVYLLPPAREQLNLRESATVTCLVKGFSPADISVQWLQRGQLLPQEKYVTSAPMPEPGAPGFYFTHSILTVTEEEWNSGETYTCVVGHEALPHLVTERTVDKSTGKPTLYNVSLIMSDTGGTCY
light: QIVLTQSPAIMSASPGEKVTMTCSASSSVSYMHWYQQKSGTSPKRWIYDTSKLASGVPARFSGSGSGTSYSLTISSMEAEDAATYYCQQWSSNPFTFGSGTKLEIKRADAAPTVSIFPPSSEQLTSGGASVVCFLNNFYPKDINVKWKIDGSERQNGVLNSWTDQDSKDSTYSMSSTLTLTKDEYERHNSYTCEATHKTSTSPIVKSFNRNEC
chain: GDDEATILADNKCMCTRVTSRIIPSTEDPNEDIVERNIRIVVPLNNRENISDPTSPLRRNFVYHLSDVCKKCDPVEVELEDQVVTATQSNICNEDDGVPETCYMYDRNKCYTTMVPLRYHGETKMVQAALTPDSCYPD
notes: Murine IgM kappa (IgMκ); It was detected with anti-mouse IgM in flow cytometry; also called TOL101 antibody; TOL101 mAb
calcium flux in CD4 T cells (Fluo-4) (% of CD4 T cells) [1]: 15
binding result [2]: no binding
